T1: Macaca mulatta TF on RF/6A cells (Macaca mulatta (protein sequence stated …, UniProt P13726 33-294 (human entry)))
T1 construct: Endogenous TF of the RF/6A cell line; also called TF-positive Macaca mulatta RF/6A cells; cynomolgus TF
T1 chain: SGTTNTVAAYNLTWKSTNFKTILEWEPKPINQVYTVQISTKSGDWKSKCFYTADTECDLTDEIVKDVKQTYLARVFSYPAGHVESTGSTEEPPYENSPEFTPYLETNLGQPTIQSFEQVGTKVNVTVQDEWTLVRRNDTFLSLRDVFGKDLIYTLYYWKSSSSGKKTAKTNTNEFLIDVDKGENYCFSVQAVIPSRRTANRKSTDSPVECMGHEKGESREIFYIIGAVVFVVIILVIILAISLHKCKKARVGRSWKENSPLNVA

T2: cynomolgus monkey TF ECD-His6 (cynomolgus monkey (Macaca fascicularis))
T2 construct: Expi293-derived; also called TF-His; cTF
T2 chain: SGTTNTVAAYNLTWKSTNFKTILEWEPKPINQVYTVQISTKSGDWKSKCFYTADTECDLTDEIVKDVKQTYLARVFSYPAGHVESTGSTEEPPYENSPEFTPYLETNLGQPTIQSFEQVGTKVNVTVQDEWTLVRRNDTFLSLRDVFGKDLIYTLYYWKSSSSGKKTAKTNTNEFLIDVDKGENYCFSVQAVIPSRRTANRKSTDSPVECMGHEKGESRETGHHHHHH


Key:
[1] = molecular target: T3, E. coli-derived TF (human (Example 17 does not restate the …, UniProt P13726 33-251)); assay: protein ELISA, plate coated with E. coli-derived TF-His, antibody titrated, HRP secondary, luminescence
T3 construct: also called E. coli-derived TF-His; E. coli-derived TF protein
Method: (§1) Plates coated with Expi293- or E. coli-derived TF-His were incubated with increasing concentrations of antibodies.

[2] = molecular target: T1, Macaca mulatta TF on RF/6A cells; assay: flow cytometry, IgG1 titrated on TF-positive Macaca mulatta RF/6A cells, 4-parameter fit
Method: (§2) After 2 washes, dead cells were labeled with TO-PRO-3 Iodide (ThermoFisher Scientific) and samples were analyzed on a CytoFLEX flow cytometer (Beckman Coulter, Brea, CA, USA) or Novocyte flow cytometer (ACEA Biosciences, San Diego, CA, USA). The median fluorescence intensities (MFIs) at each dilution were plotted and cell EC₅₀'s were derived using a 4-parameter binding model in Prism (GraphPad, La Jolla, CA, USA).

[3] = molecular target: T4, Expi293-derived TF-His (human (Example 17 does not restate the …, UniProt P13726 33-251)); assay: protein ELISA, plate coated with Expi293-derived TF-His, antibody titrated, HRP secondary, luminescence
T4 construct: Glycosylated TF ECD-His6 from Expi293 cells; also called Expi293-derived TF protein; TF ECD-His6
Method: as §1

[4] = molecular target: T2, cynomolgus monkey TF ECD-His6; assay: SPR (Biacore), TF-His over coupled antibody
Method: (§3) Kinetic measurements for the anti-TF antibodies were conducted on an Octet QK384 (Pall ForteBio, Fremont, CA, USA) or a Biacore (GE Healthcare Bio-Sciences).
(§4) For the Biacore-based measurements, the antibody was covalently coupled to a CM5 or C1 chip using an amine-coupling kit (GE Healthcare Bio-Sciences). Association between the anti-TF antibodies and a five-point three-fold titration of TF-His starting at 25 to 500 nM was measured for 300 sec. Subsequently, dissociation between the anti-TF antibody and TF-His was measured for up to 1800 sec. Kinetic data was analyzed and fitted globally using a 1:1 binding model.

[5] = molecular target: T5, human TF ECD-His6 (human, UniProt P13726 33-251); assay: SPR (Biacore), TF-His over coupled antibody
T5 construct: Expi293-derived; Biacore used TF-His; also called TF-His; hTF
Method: as §3, §4

[6] = molecular target: T2, cynomolgus monkey TF ECD-His6; assay: BLI (ForteBio Octet)
Method: as §3
(§5) Briefly, ForteBio affinity measurements were performed by loading IgGs on-line onto AHC sensors. Sensors were equilibrated off-line in assay buffer for 30 min and then monitored on-line for 60 seconds for baseline establishment. Sensors with loaded IgGs were exposed to 100 nM antigen (human, cynomolgus, or mouse TF) for 3 min, afterwards they were transferred to assay buffer for 3 min for off-rate measurement. Alternatively, binding measurements were obtained by loading biotinylated TF monomer on SA sensors followed by exposure to 100 nM antibody Fab in solution. Kinetic data was analyzed and fitted using a 1:1 Langmuir binding model and the KD was calculated by dividing the koff by the kₒₙ.

[7] = molecular target: T6, mouse TF ECD-His6 (mouse, UniProt P20352 29-251); assay: BLI (ForteBio Octet)
T6 construct: Expi293-derived; also called TF-His; mTF
Method: as §3, §5

[8] = molecular target: T5, human TF ECD-His6; assay: BLI (ForteBio Octet)
Method: as §3, §5

[9] = molecular target: T7, human Tissue Factor on human TF-positive cells (human, UniProt P13726 33-295); assay: flow cytometry, antibody titration on HCT-116 cells (endogenous human TF), 4-parameter fit of MFI
T7 construct: also called hTF; CD142
Method: as §2

Binder	EC50 [1] [nM]	EC50 [2] [nM]	EC50 [3] [nM]	Kd [4] [nM]	Kd [5] [nM]	Kd [6] [nM]	Kd [7] [nM]	Kd [8] [nM]	EC50 [9] [nM]
25A (antibody, human IgG1, V domains shown, Human IgG1; also called antibody designated 25A) VH: QVQLVQSGAEVKKPGASVKVSCKASGYTFDVYGISWVRQAPGQGLEWMGWIAPYNGNTNYAQKLQGRVTMTTDTSTSTAYMELRSLRSDDTAVYYCARDAGTYSPFGYGMDVWGQGTTVTVSS VL: DIQMTQSPSTLSASVGDRVTITCRASQSISSWLAWYQQKPGKAPKLLIYKASSLESGVPSRFSGSGSGTEFTLTISSLQPDDFATYYCQQFQSLPPFTFGGGTKVEIK	0.35	0.43	0.54						
25A3 (antibody, human IgG1, V domains shown, Human IgG1; also called antibody designated 25A3) VH: QVQLVQSGAEVKKPGASVKVSCKASGYTFDVYGISWVRQAPGQGLEWMGWIAPYSGNTNYAQKLQGRVTMTTDTSTSTAYMELRSLRSDDTAVYYCARDAGTYSPFGYGMDVWGQGTTVTVSS VL: DIQMTQSPSTLSASVGDRVTITCQASQSINNWLAWYQQKPGKAPKLLIYKAYNLESGVPSRFSGSGSGTEFTLTISSLQPDDFATYYCQLFQSLPPFTFGGGTKVEIK	0.36	0.27	0.47						
25G1 (antibody, human IgG1, V domains shown, Human IgG1; also called antibody designated 25G1) VH: QVQLVQSGAEVKKPGASVKVSCKASGYTFRSYGISWVRQAPGQGLEWMGWVAPYSGNTNYAQKLQGRVTMTTDTSTSTAYMELRSLRSDDTAVYYCARDAGTYSPYGYGMDVWGQGTTVTVSS VL: DIQMTQSPSTLSASVGDRVTITCRASHSIDSWLAWYQQKPGKAPKLLIYKASYLESGVPSRFSGSGSGTEFTLTISSLQPDDFATYYCQLFQSLPPFTFGGGTKVEIK	0.31	0.27	0.42						
43B (antibody, human IgG1, V domains shown, Human IgG1; also called antibody designated 43B) VH: QVQLQESGPGLVKPSQTLSLTCTVSGGSISSGQYWSWIRQHPGKGLEWIGEIYYSGSTRYNPSLKSRVTISVDTSKNQFSLKLSSVTAADTAVYYCARDAPYYYGGGYYYYMDVWGKGTTVTVSS VL: EIVLTQSPGTLSLSPGERATLSCRASQSVSSSYLAWYQQKPGQAPRLLIYGASSRATGIPDRFSGSGSGTDFTLTISRLEPEDFAVYYCQQVGVVPYTFGGGTKVEIK				5.64	1.75	3.4	161	2.4	0.559

Reference: US20250361322A1 (ICONIC THERAPEUTICS, published 2025)
